Test results as given in paper PMC3832543.
Several values for one entry are separate records, joined by “and”; a condition that tells them apart may be missing. Equal values may be shown once.

Target: MCL-1ES, wild type (amino acids 1-197), Flag-tagged (human)
Test: cross-linking; 293T cells; heavy membrane fraction cross-linked with glutaraldehyde, western blot; increasing MCL-1ES expression; also with MCL-1L over-expressed or knocked down

MCL-1ES, wild type (amino acids 1-197), Flag-tagged (natural protein)
stoichiometry N: 2 and 3
